Laboratory results taken from patent US11994512B2, “Single-cell genomic methods to generate ex vivo cell systems that recapitulate in vivo biology with improved fidelity” (Massachusetts Institute of Technology, priority 2018, dated 2024).

Test system: intracellular proteome of ENR+CD and ENR organoids
Test: LC-MS/MS TMT proteomics of ENR+CD versus ENR organoids
Format: cell-based, C57BL/6 mice
Conditions: for Average logFC / M1-1 Log2 Median Normalized / M1-2 Log2 Median Normalized / M2-1 Log2 Median Normalized / M2-2 Log2 Median Normalized: protein abundance, ENR+CD versus ENR organoids; for Average logFC: aggregate of the four sample pairs; for M1-1 Log2 Median Normalized: replicate M1-1; for M1-1 Log2 Median Normalized / M1-2 Log2 Median Normalized / M2-1 Log2 Median Normalized / M2-2 Log2 Median Normalized: log2 ratio; for M1-2 Log2 Median Normalized: replicate M1-2; for M2-1 Log2 Median Normalized: replicate M2-1; for M2-2 Log2 Median Normalized: replicate M2-2; for change: up = enriched in ENR+CD, down = enriched in ENR, FDR<0.05 and log fold change cut-off
Description: Because PCs are highly secretory, protein-rich cells, Applicants sought to assess the total intracellular proteome between conditions through liquid chromatography mass spectrometry (LC-MS/MS)-based proteomics. Applicants quantified relative protein abundance across eight samples using isobaric mass tag labeling from four ENR and four ENR+CD samples (M1-1 through M2-2, first digit denotes biological donor, second digit denotes technical replicate) (FIG. 3A). Samples were processed and analyzed in a single 10-plex by LC-MS/MS (FIG. 9A).
To affirm the reproducibility of the associated proteins in the ENR+CD-enriched proteome, Applicants performed relative quantification within differentiation sets.
Mass spectrometry proteomics sample preparation, sequencing, and quantification. Organoid cell pellets were isolated from Matrigel with mechanical dissociation and washed (cold PBS 5X) to remove residual extracellular protein. Proteins were extracted from cell pellets with 8 M urea (Sigma), reduced with 5 mM DTT (Thermo Fisher Pierce) for 45 minutes, alkylated with 10 mM IAA (Sigma) for 45 minutes in the dark, and double digested with both Lysyl Endopeptidase “LysC” (Wako) and trypsin (Promega) overnight at RT. A small aliquot of cellular lysate was removed from each sample for protein quantification via the Pierce™ BCA Protein Assay Kit (Pierce). After proteolytic digestion, the samples were quenched using formic acid to a final concentration of 1.0% and subsequently desalted on 10 mg OASIS HLB solid phase columns (Waters).
The peptides were labeled with TMT-10 isobaric mass tag reagent according to manufacturer's instructions (ThermoFisher Scientific). The peptides were labeled at a 1:8 ratio of peptide to TMT reagent, followed by 1-hour incubation at RT with bench top shaking at 850 rpm. After incubation, a […] of labeled tryptic peptide was removed from each labeled condition, desalted with C18 stage tips, and analyzed via LC-MS/MS using a Thermo Fisher Q Exactive Plus Hybrid Mass Spectrometer (QE-Plus) coupled to a Thermo Fisher EASY-nLC 1000 liquid chromatograph to ensure isobaric label incorporation >95%. An additional 1.0 μg of labeled tryptic peptide was removed from each channel, mixed together, desalted on a C18 stage tip, and analyzed via LC-MS to ensure equal relative protein loads. During these quality control steps, the labeled peptides were stored, unquenched at −80° C.

Molecule | Average logFC | M1-1 Log2 Median Normalized | M1-2 Log2 Median Normalized | M2-1 Log2 Median Normalized | M2-2 Log2 Median Normalized | change
B9EJ86 (protein, UniProt B9EJ86 1-889, looked up, full-length) MEAALADGEPDRSSLLGDSKDVLGPSTVVANSDEPQHLTPGKMSQRQGRDANPTPTRDLPQPSLSPASLHSQGFERGKEDISQNKDDSSLSMSKSKSESKLYNGSEKDSSTSSKLTKKESLKVQKKNYREEKKRATKELLSTITDPSVIVMADWLKIRGTLKSWTKLWCVLKPGVLLIYKTQKNGQWVGTVLLNACEIIERPSKKDGFCFKLFHPLEQSIWAVKGPKGEAVGSITQPLPSSYLIIRATSESDGRCWMDALELALKCSSLLKRTMVREGKEHDLSISSDSTHVTLYGLLRANNLHSGDNFQLNDSEIERQHFKDQDLYSDKSDKENDPEHDESDNEVLGKSEESDTDTSERQDDSYIDPEPVEPLKETTYMEQSHEELGEAGEASQTETVSEENKSLIWTLLKQVRPGMDLSRVVLPTFILEPRSFLDKLSDYYYHADFLSEAALEENPYFRLKKVVKWYLSGFYKKPKGLKKPYNPILGETFRCLWIHPRTNSKTFYIAEQVSHHPPISAFYVSNRKDGFCLSGSILAKSKFYGNSLSAILEGEARLTFLNRGEDYVMTMPYAHCKGILYGTMTLELGGTVNITCQKTGYSAILEFKLKPFLGSSDYVNQISGKLKLGKEVLATLEGHWDSEVFINDKKTDNSEIFWNPTPDIKQWRLIRHTVKFEEQDDFESEKLWQRVTKAINAKDQTEATQEKYVLEEAQRQAARDRKTKTQEWVCKLFELDPLTGEWHYKFSDTRPWDPLNDMIQFEKDGVIQTKVKHRTPMVSVPKMKHKPTRQQKKVVKGYSSPEPDIQDSSGSEAQSVKPSTRRKKGIDLGDIQSSIESIKQTQEEIKRNIMALRNHLLSSTPATDYFLQQKDYFVIFLLILLQVIINFIFK | 1.24 | 1.242 | 1.864 | 1.0905 | 0.802 | up
O09037 (protein, UniProt O09037 1-175, looked up, full-length) MLPHLVLNSISWMLLSCLLFVFQVQGEDFQKEVPSPRTSCPMGYKAYRSHCYALVMTPKSWFQADLVCQKRPSGHLVSILSGGEASFVSSLVNGRVDNYQDIWIGLHDPTMGQQPNGGGWEWSNSDVLNYLNWDGDPSSTVNRGHCGSLTASSGFLKWGDYYCDGTLPFVCKFKQ | −1.611 | −1.64 | −2.141 | −1.5875 | −1.077 | down
O35280 (protein, UniProt O35280 1-476, looked up, full-length) MAVPFVEDWDLVQTLGEGAYGEVQLAVNRITEEAVAVKIVDMKRAIDCPENIKKEICINKMLSHENVVKFYGHRREGHIQYLFLEYCSGGELFDRIEPDIGMPEQDAQRFFHQLMAGVVYLHGIGITHRDIKPENLLLDERDNLKISDFGLATVFRHNNRERLLNKMCGTLPYVAPELLKRKEFHAEPVDVWSCGIVLTAMLAGELPWDQPSDSCQEYSDWKEKKTYLNPWKKIDSAPLALLHKILVETPSARITIPDIKKDRWYNKPLNRGAKRPRATSGGMSESSSGFSKHIHSNLDFSPVNNGSSEETVKFSSSQPEPRTGLSLWDTGPSNVDKLVQGISFSQPTCPEHMLVNSQLLGTPGSSQNPWQRLVKRMTRFFTKLDADKSYQCLKETFEKLGYQWKKSCMNQVTVSTTDRRNNKLIFKINLVEMDEKILVDFRLSKGDGLEFKRHFLKIKGKLSDVVSSQKVWFPVT | −1.266 | −1.09 | −1.001 | −1.4995 | −1.475 | down
D3YUE4 (protein, UniProt D3YUE4 1-279, looked up, full-length) MAACAGGPGSWSENILKYFLRNNQITAEDGAEILWSHAANHKSQMNEALKSAAHMIEADVLLPSDGSEHGQPIMAHPPETSSDNTLQEWLAEVVKSNKGIKLDFKSLAAVRASMLFLDNMKQHLQRPVWINADILPGPNGSSKVVDAKAFLDTVTSFFPDVTFSLGWTTGWHPEKVNEGYSWSMVKEMDYICSELTQPVTFPVRAALVRQSCPQLLWLLTKSNRYSLTVWTGKDDIYSTEDLLYIRDYFNKTQVFYDISEPQNHEFKQAIGIRGHSLRI | −1.165 | −0.678 | −1.053 | −1.3175 | −1.611 | down
O08529 (protein, UniProt O08529 1-700, looked up, full-length) MAGIAIKLAKDREAAEGLGSHERAIKYLNQDYETLRNECLEAGALFQDPSFPALPSSLGYKELGPYSSKTRGIEWKRPTEICADPQFIIGGATRTDICQGALGDCWLLAAIASLTLNEEILARVVPPDQSFQENYAGIFHFQFWQYGEWVEVVVDDRLPTKDGELLFVHSAEGSEFWSALLEKAYAKINGCYEALSGGATTEGFEDFTGGIAEWYELRKPPPNLFKIIQKALEKGSLLGCSIDITSAADSEAVTYQKLVKGHAYSVTGAEEVESSGSLQKLIRIRNPWGQVEWTGKWNDNCPSWNTVDPEVRANLTERQEDGEFWMSFSDFLRHYSRLEICNLTPDTLTCDSYKKWKLTKMDGNWRRGSTAGGCRNYPNTFWMNPQYLIKLEEEDEDEEDGERGCTFLVGLIQKHRRRQRKMGEDMHTIGFGIYEVPEELTGQTNIHLGKNFFLTTRARERSDTFINLREVLNRFKLPPGEYVLVPSTFEPHKDGDFCIRVFSEKKADYQAVDDEIEANIEEIDANEEDIDDGFRRLFVQLAGEDAEISAFELQTILRRVLAKRQDIKSDGFSIETCKIMVDMLDEDGSGKLGLKEFYILWTKIQKYQKIYREIDVDRSGTMNSYEMRKALEEAGFKLPCQLHQVIVARFADDELIIDFDNFVRCLVRLETLFKIFKQLDPENTGTIQLNLASWLSFSVL | 1.309 | 1.421 | 1.297 | 1.1725 | 1.347 | up
E9Q5C9 (protein, UniProt E9Q5C9 1-702, looked up, full-length) MADTGLRRVVPSDLYPLVLRFLRDSQLSEVASKFAKATGATQQDANASSLLDIYSFWLNRSTKAPKVKLQSNGPVTKKAKKETSSSDSSEDSSEDEDKKAQGLPTQKAAAQVKRASVPQHAGKAAAKASESSSSEESSEEEEEDKKKKPVQQKAAKPQAKAVRPPAKKAESSESDSDSDSDSSSEEETPQTQKPKAAVAAKAQTKAEAKPGTPAKAQPKVANGKAAASSSSSSSSDDSEEEKKAAAPPKKTVPKKQVVAKAPVKVAAAPTQKSSSSEDSSSEEEEGQRQPMKKKAGPYSSVPPPSVPLPKKSPGTQAPKKAAAQTQPADSSDDSSDDSDSSSEEEKKPPAKTVVSKTPAKAAPVKKKAESSSDSSDSDSSEDEAPAKPVSTTKSPKPAVTPKPSAAKAVTTPKQPAGSNQKPQSRKADSSSSEEESSSSEEEEASKKSATTPKAKVTAKAAPAKQAPQAAGDSSSDSDSSSSEEEEKTPKPPAKKKAAGGAVSTPAPGKKAEAKSSSSSSSSSSEDSSEEEKKKKPKATTPKIQASKANGTPASLNGKAAKESEEEEEEEETEEKKKAAGTKPGSGKKRKQNETADEATTPQAKKVKLETPNTFPKRKKGERRASSPFRRVREEEIEVDSRVADNSFDAKRGAAGDWGERANQVLKFTKGKSFRHEKTKKKRGSYRGGSISVQVNSVKFDSE | −1.884 | −1.968 | −1.821 | −1.5075 | −2.239 | down
O09010 (protein, UniProt O09010 1-378, looked up, full-length) MLQRCGRRLLLALVGALLACLLVLTADPPPTPMPAERGRRALRSLAGSSGGAPASGSRAAVDPGVLTREVHSLSEYFSLLTRARRDADPPPGVASRQGDGHPRPPAEVLSPRDVFIAVKTTRKFHRARLDLLFETWISRHKEMTFIFTDGEDEALAKLTGNVVLTNCSSAHSRQALSCKMAVEYDRFIESGKKWFCHVDDDNYVNLRALLRLLASYPHTQDVYIGKPSLDRPIQATERISEHKVRPVHFWFATGGAGFCISRGLALKMGPWASGGHFMSTAERIRLPDDCTIGYIVEALLGVPLIRSGLFHSHLENLQQVPTTELHEQVTLSYGMFENKRNAVHIKGPFSVEADPSRFRSVHCHLYPDTPWCPRSAIF | 1.464 | 1.443 | 1.37 | 1.4835 | 1.56 | up
